Assay results: PMC5437272, “ISCA1 is essential for mitochondrial Fe4S4 biogenesis in vivo” (Nature Communications, 2017)
“And” between values parts separate entries of the source, which are not always exact repeats. Equal values may be shown once.

B1: His-ISCA2 (mouse recombinant ISCA2, mature form) (natural protein, UniProt Q9DCB8 38-154, looked up)
chain: TTSSIPEAGEGQIRLTDSCVQRLLEITEGSEFLRLQVEGGGCSGFQYKFSLDTVINPDDRVFEQGGARVVVDSDSLAFVKGAQVDFSQELIRSSFQVLNNPQAQQGCSCGSSFSVKV
notes: ISCA2, mouse, mature form cloned into pET-11a; theoretical mass of the His-tagged monomer 13,554 Da; As purified it holds a Fe2S2 cluster; also called Fe2S2-ISCA2; source: E. coli BL21(DE3)/pET-ISCA2, purified under anaerobic condition (Ni-NTA); not shown: His tag, N-terminal, kept
B2: His-ISCA1 (mouse recombinant ISCA1, mature form) (natural protein, UniProt Q9D924 13-129, looked up)
chain: VSKRKLQPTRAALTLTPSAVNKIKQLLKDKPEHVGLKVGVRTRGCNGLSYSLEYTKTKGDSDEEVIQDGVRVFIEKKAQLTLLGTEMDYVEDKLSSEFVFNNPNIKGTCGCGESFHV
notes: ISCA1, mouse, mature form cloned into pET-11a; theoretical mass of the His-tagged monomer 13,898.8 Da; As purified it holds a Fe2S2 cluster; By gel filtration a mixture of dimer (main) and tetramer (minor); also called Fe2S2-ISCA1; source: E. coli BL21(DE3)/pET-ISCA1, purified aerobically (Ni-NTA); not shown: His tag, N-terminal, kept

Molecular target: the molecule itself
Experiment: SEC; analytical Superdex-75, 0.5 ml min^-1, buffer E (100 mM Tris-HCl pH 7.5, 100 mM NaCl, 5 mM DTT), calibrated with molecular weight standards; oligomerization state of the ISCA proteins

Protein | stoichiometry N
B1 | 2
B2 | 2 and 4
